From paper PMC8800115 (2021) come the findings set out here.

The test addresses K63-linked tetraubiquitin (UniProt P0CG48 1-76, G76 to K63 isopeptide bonds between adjacent ubiquitins). Description: ITC.

B1: ASCC2 CUE domain (construct of the ITC experiments of Figure 2) (domain or fragment)
chain: AAVGPAMCGVELDSLISQVKDLLPDLGEGFILACLEYYHYDPEQVINNILEERLAPTLSQLDRNLDREM
B1: binding was put at a Kd of 2100 nM.
